Common to all, as to assay: ELISA
(ELISA stands for enzyme-linked immunosorbent assay.)

Test [1] deals with T1, human LILRB4 (UniProt Q8NHJ6 22-259).
The target of test [2] is T1, human LILRB4. The source holds these as a separate data set.
Test [3] addresses T1, human LILRB4. The source holds these as a separate data set.

Like-named read-outs stand apart in the source and are kept apart here.

T1 sequence (Q8NHJ6 22-259): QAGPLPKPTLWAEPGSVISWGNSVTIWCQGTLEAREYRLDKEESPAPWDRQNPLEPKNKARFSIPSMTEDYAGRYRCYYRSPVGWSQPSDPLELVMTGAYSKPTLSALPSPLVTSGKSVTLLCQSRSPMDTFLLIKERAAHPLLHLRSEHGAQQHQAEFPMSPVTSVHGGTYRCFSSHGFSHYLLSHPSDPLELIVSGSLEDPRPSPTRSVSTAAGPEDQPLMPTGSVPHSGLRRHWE

B1: anti-LILRB4 rabbit monoclonal antibody #192 (antibody, V domains shown)
VH: EQSLEESGGGLVTPGGTLTLTCTVSGFSLSNNAMSWVRQAPGKGLEWIGVILLAGPTYYASWAKGRFTISKTSTTVDLKITSPTTEDTATYFCAIAIGSRPFALWGQGTLVTISS
VL: ELVLTQTPSSTSAAVGGTVTINCQSSQSVYSNWLSWFQQKPGQPPKPLIYLASTLASGVPSRFSGSGSGTQFTLTISDVQCDDAATYYCQGGYNGNIYTFGGGTEVVVK
As usually defined, the EC50 is the concentration at which the effect is half-maximal. The molecule B1 returned an EC50 in test [1] of 0.021 µg/mL.

B2: anti-LILRB4 rabbit monoclonal antibody #208 (antibody, V domains shown)
VH: EQSVEESGGGLVTPGGTLTLTCTVSGFSLSNNAMSWVRQAPGKGLEWIGVILLSGTTYYASWAKGRFTISKTSTTVDLKITSPTTEDTATYFCAIAIGSRPFALWGQGTLVTISS
VL: ELVMTQTPSSTSAAVGGTVTINCQSSQSVYSNWLSWFQQKPGQPPKPLIYLASTLASGVPSRFSGSGSGTQFTLTISDVQCDDAATYYCQGGYNGNIYTFGGGTEVVVK
The molecule B2 had an EC50 in test [2] of 0.0198 µg/mL.

B3: anti-LILRB4 rabbit monoclonal antibody #120 (antibody, V domains shown)
VH: QSLEESGGRLVTPGTPLTLTCTVSGIDLNKYAMTWVRQAPGKGLEYIGFINIVGIAGYATWAKGRFTISKTSTTVDLKVTSPTTEDTATYFCARNWIRLDLWGQGTLVTVSS
VL: ELDLTQTPASVSAAVGGTVTISCQSSESLYKKNYLSWFQQKPGQPPKLLIFEASKLASGVPSRFSGSGSGTQFTLTISDVQCDDAASYYCLGDYTNGRDTTFGGGTEVVVK
With B3, the concentration giving a half-maximal response (EC50) in test [3] amounted to 0.0119 µg/mL.

B4: anti-LILRB4 rabbit monoclonal antibody #161-2 (antibody, V domains shown)
VH: QSVKESGGRLVTPGTPLTLTCTVSGIDLSVYLMSWVRHSPGKGLEYIGFINSAGITAYATWAKGRFIISKTSTTVDLKVTSPTTEDTATYFCARNWIRLDLWGQGTLVTISS
VL: TQTPASVSAAVGGTVTISCQSSETIYKNYLSWFQQKPGQPPKLLIYESSKLASGVPSRFSGSGSGTQFTLTISDVQCDDAATYYCLGGYTDGRDTIFGGGTEVEIK
The molecule B4 came in with a half-maximal effective concentration (EC50) in test [2] of 0.0126 µg/mL.

B5: anti-LILRB4 rabbit monoclonal antibody #78 (antibody, V domains shown)
VH: QSLQESGGRLVTPGTPLTLTCTVSGIDLSVYLMSWVRQSPGKGLEYIGFINSAGITAYATWAKGRFIISKTSTTVDLKVTSPTTEDTATYFCARNWIRLDLWGQGTLVTISS
VL: ELVLTQTPASVSAAVGGTVTISCQSSESIYKNYLSWFQQKPGQPPKLLIYETSKLASGVPSRFSGSGSGTQFTLTISDVQCDDAATYYCLGGYTNGRDTIFGGGTELEIK
In test [3], B5 yielded an EC50 of 0.0121 µg/mL.

B6: anti-LILRB4 rabbit monoclonal antibody #161-1 (antibody, V domains shown)
VH: QSVKESGGRLVTPGTPLTLTCTVSGIDLSVYLMSWVRHSPGKGLEYIGFINSAGITAYATWAKGRFIISKTSTTVDLKVTSPTTEDTATYFCARNWIRLDLWGQGTLVTISS
VL: ELDLTQTPASVSAAVGGTVTISCQSSETIYKNYLSWFQQKPGQPPKLLIYESSKLASGVPSRFSGSGSGTQFTLTISDVQCDDAATYYCLGGYTDGRDTIFGGGTELEIK
In turn, B6 yielded a 50% effective concentration (EC50) in test [1] of 0.0104 µg/mL.

The values above are taken from patent US20180086829A1 (published 2018).
